# In patent publication US20040132033:
# Experiments:
# Assay in all cases: EMSA
# SBS#1140 ZFP (synthetic) = details: 100 mM KCl, 1 mM MgCl2, 100 uM ZnCl2, pH 7.5, RT
# SBS#1750 ZFP (synthetic) = details: 100 mM KCl, 1 mM MgCl2, 100 uM ZnCl2, pH 7.5, RT
# SBS#1760 ZFP (synthetic) = details: 100 mM KCl, 1 mM MgCl2, 100 uM ZnCl2, pH 7.5, RT
# SBS#1764 ZFP (synthetic) = details: 100 mM KCl, 1 mM MgCl2, 100 uM ZnCl2, pH 7.5, RT
# SBS#1755 ZFP (synthetic) = details: 100 mM KCl, 1 mM MgCl2, 100 uM ZnCl2, pH 7.5, RT
# SBS#779 ZFP (synthetic) = details: 100 mM KCl, 1 mM MgCl2, 100 uM ZnCl2, pH 7.5, RT
# SBS#1756 ZFP (synthetic) = details: 100 mM KCl, 1 mM MgCl2, 100 uM ZnCl2, pH 7.5, RT
# SBS#1770 ZFP (synthetic) = details: target also SEQ 111; 100 mM KCl, 1 mM MgCl2, 100 uM ZnCl2, pH 7.5, RT
# SBS#781 ZFP (synthetic) = details: 100 mM KCl, 1 mM MgCl2, 100 uM ZnCl2, pH 7.5, RT
# SBS#519 ZFP (synthetic) = details: listed twice (-343 and -329, same 9 bp, SEQ 21 and 23); 100 mM KCl, 1 mM MgCl2, 100 uM ZnCl2, pH 7.5, RT
# SBS#386 ZFP (synthetic) = details: 100 mM KCl, 1 mM MgCl2, 100 uM ZnCl2, pH 7.5, RT
# SBS#705 ZFP (synthetic) = details: 100 mM KCl, 1 mM MgCl2, 100 uM ZnCl2, pH 7.5, RT
# SBS#713 ZFP (synthetic) = details: 100 mM KCl, 1 mM MgCl2, 100 uM ZnCl2, pH 7.5, RT
# SBS#1757 ZFP (synthetic) = details: 100 mM KCl, 1 mM MgCl2, 100 uM ZnCl2, pH 7.5, RT
# SBS#1772 ZFP (synthetic) = details: 100 mM KCl, 1 mM MgCl2, 100 uM ZnCl2, pH 7.5, RT
sequence,measurement,setting,value
AAGGGTGCG (double strand) [SBS#1140 target (-287)],Kd,SBS#1140 ZFP (synthetic),0.3 nM
ATGGAGGGC (double strand) [SBS#1750 target (-147)],Kd,SBS#1750 ZFP (synthetic),0.011 nM
ATGGCCGGG (double strand) [SBS#1760 target (-299)],Kd,SBS#1760 ZFP (synthetic),0.42 nM
CAAGTGGGT (double strand) [SBS#1764 target (-286)],Kd,SBS#1764 ZFP (synthetic),0.11 nM
CGGGAGGCC (double strand) [SBS#1755 target (-319)],Kd,SBS#1755 ZFP (synthetic),0.006 nM
CGGGGAGCA (double strand) [SBS#779 target (-356)],Kd,SBS#779 ZFP (synthetic),0.5 nM
CGGGGAGGA (double strand) [SBS#1756/1770 target (-342)],Kd,SBS#1756 ZFP (synthetic),0.125 nM
same,Kd,SBS#1770 ZFP (synthetic),0.01 nM
GGGGAGCAG (double strand) [SBS#781 target (-357)],Kd,SBS#781 ZFP (synthetic),4.25 nM
GGGGAGGAG (double strand) [SBS#519 target (-343 and -329)],Kd,SBS#519 ZFP (synthetic),1.12 nM
GGGGCGGAG (double strand) [SBS#386 target (-111)],Kd,SBS#386 ZFP (synthetic),0.4 nM
GGGGCGGGG (double strand) [SBS#705 target (-201)],Kd,SBS#705 ZFP (synthetic),0.01 nM
GGTGAGGAG (double strand) [SBS#713 target (-127)],Kd,SBS#713 ZFP (synthetic),0.15 nM
GGTGCGGAG (double strand) [SBS#1757 target (-290)],Kd,SBS#1757 ZFP (synthetic),0.05 nM
GTGGGTGAT (double strand) [SBS#1772 target (-277)],Kd,SBS#1772 ZFP (synthetic),0.006 nM
